The values that follow come from patent US20160039904A1, “STABILIZED SINGLE HUMAN CD4 DOMAINS AND FUSION PROTEINS” (priority 2013, published 2016).

Common to all, as to test: cell-based or functional assay
For assay [1], the target named is HIV-1 Env of isolate CNE47 (HIV-1).
In assay [2] the target is HIV-1 Env of isolate CNE55 (HIV-1).
Assay [3] concerns the target HIV-1 Env of isolate CH119 (HIV-1).
The target in assay [4] is HIV-1 Env of isolate CH91 (HIV-1).
In assay [5] the target is HIV-1 Env of isolate BZ167.ec9 (HIV-1).
For assay [6], the target named is HIV-1 Env of isolate KNH1144.EC1 (HIV-1).
The target in assay [7] is HIV-1 Env of isolate CNE68 (HIV-1).
Assay [8] deals with HIV-1 Env of isolate CNE4 (HIV-1).
Assay [9] has as its target HIV-1 Env of isolate CNE7 (HIV-1).
The target in assay [10] is HIV-1 Env of isolate CNE9 (HIV-1).
The target of assay [11] is HIV-1 Env of isolate CNE6 (HIV-1).
For assay [12], the target named is HIV-1 Env of isolate CH70 (HIV-1).

As to “D1D2Fc (from UniProt P01730 26-203) (Fc fusion)”, the neutralization IC50 was 152 nM in assay [1]; 213 nM in [2]; 85 nM in [3]; 35 nM in [4]; 9.7 nM in assay [7]; 3.9 nM in [8]. The neutralization IC50 was found to be 19 nM in assay [9], 9.9 nM in assay [10], 68 nM in [11] and 7.3 nM in assay [12]. Moreover, the neutralization IC90 in assay [1] is > 250 nM; in assay [2], > 250 nM; in assay [3], > 250 nM; in assay [4], > 250 nM; in [7], 133 nM; in [8], 24 nM. Moreover, the neutralization IC90 came out at 161 nM in [9], 63 nM in assay [10], 192 nM in assay [11] and 109 nM in [12]. Moreover, the figures for the IC50, neutralization in TZM-bl cell-based assay in [5] and in assay [6] were 13 nM and 4.8 nM, respectively. The IC90, neutralization in TZM-bl cell-based assay in assay [5] worked out at 60 nM.
